Experimental data reported in patent US20080015137A1 (University of Texas, published 2008).
Substitutions are numbered along the chain they refer to. Numbers in names are those of the source. Values belong to the binder of their own block, whether it stands above or below them. No end group written: not given here.

Columns and labels:
[1] = biological target: T1, Karyopherin beta2 (Kapβ2), full length, wild type (human, UniProt Q92973-2 1-890); experiment: ITC; MBP-M9NLS(257-305) titrated into full length Kapβ2
T1 construct: mature; Expressed as a GST fusion from pGEX-Tev and purified; Also used here for the Kapβ2 added in the GST pull-downs; also called Transportin
T1 sequence (looked up): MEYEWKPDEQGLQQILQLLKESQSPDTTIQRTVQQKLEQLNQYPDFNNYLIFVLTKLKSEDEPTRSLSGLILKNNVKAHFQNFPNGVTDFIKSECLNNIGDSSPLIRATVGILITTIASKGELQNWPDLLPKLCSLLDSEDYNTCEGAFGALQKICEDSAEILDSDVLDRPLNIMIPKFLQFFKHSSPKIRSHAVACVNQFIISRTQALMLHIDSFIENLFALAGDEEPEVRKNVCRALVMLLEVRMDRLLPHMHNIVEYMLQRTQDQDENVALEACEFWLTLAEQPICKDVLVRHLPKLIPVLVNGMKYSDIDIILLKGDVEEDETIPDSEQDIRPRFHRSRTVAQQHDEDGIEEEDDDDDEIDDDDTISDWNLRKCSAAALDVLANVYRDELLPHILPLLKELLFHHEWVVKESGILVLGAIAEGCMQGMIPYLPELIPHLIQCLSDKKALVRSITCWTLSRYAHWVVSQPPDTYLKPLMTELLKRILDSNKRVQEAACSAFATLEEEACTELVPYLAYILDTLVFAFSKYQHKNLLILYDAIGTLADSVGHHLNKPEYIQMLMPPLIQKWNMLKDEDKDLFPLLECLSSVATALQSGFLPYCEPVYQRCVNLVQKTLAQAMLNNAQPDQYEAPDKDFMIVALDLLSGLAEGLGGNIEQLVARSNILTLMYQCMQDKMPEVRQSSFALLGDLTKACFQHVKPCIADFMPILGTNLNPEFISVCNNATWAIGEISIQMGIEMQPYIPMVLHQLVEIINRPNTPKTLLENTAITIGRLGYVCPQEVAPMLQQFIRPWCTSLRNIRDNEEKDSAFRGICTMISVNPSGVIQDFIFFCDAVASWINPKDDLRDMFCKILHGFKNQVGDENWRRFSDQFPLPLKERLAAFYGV
Description: Substrate residues that make two or more sidechain contacts with Kapβ2 (F273, F281, R284, P288 and Y289) were systematically mutated to alanines.
The ITC studies used a MicroCal Omega VP-ITC calorimeter (MicroCal Inc., Northampton, Mass.). Proteins were dialyzed against buffer containing 20 mM Tris pH 7.5, 100 mM NaCl and 2 mM P-mercaptoethanol. […] Most ITC studies were done at 20° C. with 35 rounds of about 8 μl injections. […] Data was plotted and analyzed using MicroCal Origin software version 7.0, with a single binding site model.

[2] = biological target: T1, Karyopherin beta2 (Kapβ2), full length, …; experiment: competition ITC (control); 154 µM MBP-hnRNP A1-NLS titrated into 12 µM Kapβ2 with MBP-hnRNP A1-NLS R284A/P288A/Y289A as displacement ligand
[3] = biological target: T1, Karyopherin beta2 (Kapβ2), full length, …; experiment: ITC; MBP-hnRNP M(41-70) titrated into full-length Kapβ2
Description: (§1) Quantitation of binding affinity with Isothermal Titration Calorimetry. Binding affinities for wild type and mutant MBP-hnRNP M-NLS were determined using Isothermal titration calorimetry (ITC). The experiments were performed using a MicroCal Omega VP-ITC calorimeter (MicroCal Inc., Northampton, Mass.). MBP-NLS proteins were dialyzed against buffer containing 20 mM Tris pH 7.5, 100 mM NaCl and 2 mM β-mercaptoethanol. […] All ITC experiments were done at 20° C. with 35 rounds of 8 μl injections. Data were plotted and analyzed using the single binding site model of MicroCal Origin software version 7.0.

[4] = biological target: T1, Karyopherin beta2 (Kapβ2), full length, …; experiment: ITC; MBP-hnRNP M(41-70) mutant titrated into full-length Kapβ2
Description: as §1

[5] = biological target: T1, Karyopherin beta2 (Kapβ2), full length, …; experiment: ITC; MBP-hnRNP M(41-70) mutant titrated into full-length Kapβ2; unit cell prints only n
Description: as §1

[6] = biological target: T1, Karyopherin beta2 (Kapβ2), full length, …; experiment: competition ITC (107 pM versus 20 nM for hnRNP A1-NLS)
[7] = biological target: T1, Karyopherin beta2 (Kapβ2), full length, …; experiment: competition ITC; repeat with 20 µM MBP-hnRNP A1-NLS R284A/P288A/Y289A as displacement ligand
[8] = biological target: T1, Karyopherin beta2 (Kapβ2), full length, …; experiment: competition ITC; 108 µM MBP-M9M titrated into 12 µM Kapβ2 with 18 µM MBP-hnRNP A1-NLS R284A/P288A/Y289A as displacement ligand

B1: MBP-M9NLS(257-305) wild type (other, human, UniProt P09651-2 257-305, looked up, not shown: large carriers)
chain: GGSYNDFGNYNNQSSNFGPMKGGNFGGRSSGPYGGGGQYFAKPRNQGGY
notes: MBP fusion of the NLS peptide; also called MBP-hnRNP A1-NLS; wildtype hnRNP A1-NLS
- Kd [1]: 42 nM
- Kd [2]: 20 nM

B2: MBP-hnRNP M(41-70) wild type (other, human, UniProt P52272 41-70, looked up, not shown: large carriers)
chain: ERPAQNEKRKEKNIKRGGNRFEPYANPTKR
modifications: also: MBP fusion partner, not in chain
notes: range 41-70; also called MBP-hnRNP M-NLS; hnRNP M-NLS
- Kd [3]: 10 nM

B3: MBP-hnRNP M(41-70) K50A/E51A/K52A/N53A/I54A/K55A/R56A (other, not shown: large carriers; small tags and cut ends)
chain: ERPAQNEKRAAAAAAAGGNRFEPYANPTKR
modifications: also: MBP fusion partner, not in chain
notes: also called all seven residues of 50KEKNIKR56 mutated to alanines
- Kd [4]: 1200 nM

Binder: ERPAQNEKRKEKNIKRGGNRFEAAANPTKR (other, not shown: large carriers; small tags and cut ends, also: MBP fusion partner, not in chain) [MBP-hnRNP M(41-70) P63A/Y64A]
- Kd [4]: 4500 nM

B4: MBP-hnRNP M(41-70) K50A/E51A/K52A/N53A (other, not shown: large carriers; small tags and cut ends)
chain: B3 chain with A14I, A15K, A16R
modifications: also: MBP fusion partner, not in chain
notes: also called quadruple 50KEKN53/AAAA hnRNP M mutant
- Kd [4]: 22.3 nM

Binder: ERPAQNEKRKEKAIKRGGNRFEPYANPTKR (other, not shown: large carriers; small tags and cut ends, also: MBP fusion partner, not in chain) [MBP-hnRNP M(41-70) N53A]
- Kd [4]: 17.1 nM

Binder: ERPAQNEKRAEKNIKRGGNRFEPYANPTKR (other, not shown: large carriers; small tags and cut ends, also: MBP fusion partner, not in chain) [MBP-hnRNP M(41-70) K50A]
- Kd [4]: 16.4 nM

Binder: ERPAQNEKRKEKNIKRGGNRAEPYANPTKR (other, not shown: large carriers; small tags and cut ends, also: MBP fusion partner, not in chain) [MBP-hnRNP M(41-70) F61A]
- Kd [4]: 11.2 nM

Binder: GPGYSGGSRGYGSGGQGYGNQGSGYGGSFEPYANPTKR (designed binder) [MBP-M9M]
- fold tighter binding against natural NLS (hnRNP A1-NLS) [6]: 200 fold
- Kd [7]: 0.111 nM
- Kd [8]: 0.107 nM

Next, values leading:

- Kd [4]: 14.6 nM
Binder: ERPAQNEKRKEANIKRGGNRFEPYANPTKR (other, not shown: large carriers; small tags and cut ends, also: MBP fusion partner, not in chain) [MBP-hnRNP M(41-70) K52A]

- Kd [4]: 8600 nM
Binder: ERPAQNEKRKEKNIKRGGNRAEAAANPTKR (other, not shown: large carriers; small tags and cut ends, also: MBP fusion partner, not in chain) [MBP-hnRNP M(41-70) F61A/P63A/Y64A]

- Kd [5]: 8.7 nM
Binder: ERPAQNEKRKEKNIKRGGNRFEPYANATKR (other, not shown: large carriers; small tags and cut ends, also: MBP fusion partner, not in chain) [MBP-hnRNP M(41-70) P67A]

- Kd [4]: 13.9 nM
Binder: ERPAQNEKRKEKNIKAGGNRFEPYANPTKR (other, not shown: large carriers; small tags and cut ends, also: MBP fusion partner, not in chain) [MBP-hnRNP M(41-70) R56A]

- Kd [4]: 7.6 nM
Binder: ERPAQNEKRKEKNIARGGNRFEPYANPTKR (other, not shown: large carriers; small tags and cut ends, also: MBP fusion partner, not in chain) [MBP-hnRNP M(41-70) K55A]

- Kd [4]: 8.8 nM
Binder: ERPAQNEKRKEKNAKRGGNRFEPYANPTKR (other, not shown: large carriers; small tags and cut ends, also: MBP fusion partner, not in chain) [MBP-hnRNP M(41-70) I54A]
